Source: the supplement of paper PMC12636428

Test system: Saccharomyces cerevisiae
Test: transcriptional activation domain activity (GFP:mCherry ratio, weighted mean of sorted bins, harmonized to initial dataset scale) (arbitrary fluorescence ratio units); higher = stronger transcriptional activation
Conditions: beta-estradiol 1 µM; induction time 4 h
In short: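 Values are activation activity, found as the read-weighted mean of bin median fluorescence, averaged across barcodes and then mapped linearly onto the initial dataset scale. Barcoded protein tiles fused to an estradiol-inducible synthetic transcription factor were integrated at the URA3 locus of GFP-reporter yeast diploids. Cells were induced for 4 hours at 30 °C with 1 uM beta-estradiol in SC, sorted into 8 bins by GFP:mCherry ratio, and barcode-sequenced, with tiles under 50 reads discarded.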

Sequence | transcriptional activation domain activity
LLLVHGRWSYQRVADMHSNFFYKNVIWTFALFWYLPFNSFDATYLYQYTFILL | 47600
DLFMTLGWISGFMAELIAVQGACSLGWHPGCTNFNWLMAWLFFLFLSWGAGFF | 66400
KQYCVRPNSGRIEPGKDVEVQILLQAMKEDPPLDAKCRDKFLVQSVAVSADKE | 40700
WSSYTGPILSPGFSDLDWAPDPSNTTSGNLFIDLWPTWLSWMPDSTVLFTPWG | 49900
MIASSPGGILCGILLFLLFFLLPCDLPLPFVSCFFSLFSPFLMFLFFLPYFFS | 40700
KTPAAANKAGGGGAGGKSAGGRGKTQRARGGRVKQATTQKQTATPKQQQTAAK | 24000
FGYSPSAVWVFLFCFGQGLISFAFLPFFFYLVSICIIILGGLLFCIWVVYIYQ | 28400
EKKVKTPKSPKKEKKKEEPAAAPAAAAEEPAKEEAAAPAEAAVAPTEEPAKVE | 42200
LFSLCFSEICTLFLLLMCQGIDLLDPGVRLINWKVSLWLLLATILVFIPLSYS | 43900
MALLSQVARLLGSFLCVAISCFGRLALLFLWLILAYFTFWSFFSGNLPICFCL | 59300
PKRASQGRNFNTLFDKYFTGKDWEIHIMRTLRPDIFILLCVLFVPTEFKEIHD | 37700
AAAAAAAASNSYAIPENELLDEDTMNFISSLKNDLSNISNSLPFEYPHEIAEA | 123000
CRGFGFWVRVLLGICGVCGVVALRTYAIYHVFQLNLPSRGLRFYLPLLFYIAC | 57100
PPPPPPPGAMGGLPPPPPPPPPPPGGPGGGPPPPPPPPPGGPGGPPPPPPPPG | 35100
LIYQKLPRVLKRPGWNFHPAVALTFSILLFAAYPLICFFNILIAWSNEVSFHN | 54300
MPVVKLMAEPFLFLFLFYLSVLALAFFYFFYFFYFFFLKILPGMMVFSSLGCF | 55500
MAAPPFLWTLFFFLFSILLLLSHTYFFLLLLACFFRFWFFYCSFYFSFDFLSS | 37900
APPEGGDKSESKEPPKKEESAPTEAKPAEPKEENKPEAKQASNKETKPESSKP | 23300
MRLLAYGLMSSGVLLAHVVHIWRQRGFFFATCIGLTNHNFGLLVIMNFCLFCS | 56000
PMSDQHKSQLLPITSVRLRLKLIVHWIHGFKTQWWFRVFFFQKYLRSILFDPF | 37700
FFLLFHIFHCLWGPRATILLFFSILLFFYPISTFMRCIIHRVFLLFFAFFFFL | 22200
SILASLGFIVCGVYIWVTSHWNPQHVRDGLPLLYFSGHLRCKIYSIVLNLFVT | 69900
AYLTFCIYLCFWSYLNLRLAGLFFFSLFIILFPPRVSWLHYFSFLFYSGVFCF | 51000
MIGHDYLLVVVPIPILSLLHVSLLPYFFYFFVLVLVFLYLFLLRFLSFLLLLL | 65700
GGEGEKKKREGKEGREKRGGRRKKGRGKKGRGREGRKKGKRKREGKGKKGEKR | 24600

Sequence | transcriptional activation domain activity
RLLNKTRQCHDDGIAVLQNSIETISTTLVLWTHREVIGPLQLNLNWVAMSFAC | 48200
MFGYDSSRSSCSFLLPRESSIRLMVYFLYLLRVFYLLFFVFHLFLLPSSLFFF | 41200
KQYCVRPNSGRIEAGKEVEVQVLLQAMKEDPPADAKCRDKFLVQSVAISADKE | 17800
LSSSPSAQIATNTNVVFILGSDDKRVKEVGDALKTKLGVKGGGKGSKWSGKFG | 33200
EKNEKPAPVAPAEGAVAEAKEGKSQKKEKKEKKPAEEGSSSKKGGKSAPAAAE | 33700
WDMTLGGTINKTGVIGVIMIVIGFYLWFFLSCAVLIAMEGCSAMLHSLRLQWV | 31300
PAAQFLTEKRDRGGGGKGGEEGGGGSGKKVYKGAAMPNRYGIRPGHRWDGVDR | 28200
TRHARALEVIKFTKRILSVGGMKYRERMFWWCPIDSATVRAWMLWVLGSIPLV | 62900
HCLTFHQTSKLTHILLTYRQSILVTVYSHLLLLDHSSQVWWRWMNIFFTLVIW | 69500
SWFIYSYDKEWIFLWHIPFPYPPIRTPSIPWVLYGLSVRFWSFISLLICNFFC | 63300
GVDERRAIVESFVKRVTHKYLRHCDPSEPVLLLSSLVIKLIFARFWLLVYRPQ | 44900
GLEFVEPWTELIEQRYMQCGDGDNNNFENLYNLFVNSNNINNDINNSRPITRK | 81200
EPAVVKAVAAVAAQDGGDGREEHRREKKKKKKKREKREKRELVAGQEGGGGEG | < 6570
LQQVCNVLPSFEQSSKIITDFFNTELETNEVSEVLDKTKIINDFTSSFLPSDE | 50400
VSAARKRWIAMVWLFTWWIPTYLLVCCGMKRQDIRMAWREKVAICIVIFWISA | 56200
ILIIVFFYVHFLGVLIFLVGGYYHTKVAHGSYWIWPSFVFWAFDRFVRVVRLV | 48500
EMLSASKGRKKARMEEEDEDEWAGDGASKAKAKGKKAAKKPAKARAPKGKAAA | 37400
EKEESDEDESEKGSAAGGRGKAALKTWVKRVRLIRDKGTLLGKGFGYVQFNDR | 69000
SPWSLPHLESKFVEDGLYYAIQVISYISKINSKASYYYYQIRMLLVASRFIMQ | 46000
IIFCLGRYGLICSLMYTNTVLIFLPPSRMSAQASLTCQTFASILVFCIVLSAI | 73300
MYELAFFFFFFLFRLFLSLFRGGCFWVQIFVFIPEYLVYSILFSFFFLLLFTF | 47500
TARVSEAKPARGRPSSAKAESPAVEAAPAVKKRGRGRPSKTKPETEEEEEAVP | 39600
MGDCIKAHVFLLTFFYLYIHTHIFLFLFFIFLPFLLFSASSIYILFSFLFFPA | 32300
MLAYRSQQGWSEGDFLACRWFFSFFFPLFLPLSPPSFLCPFSFLFLFFLLLHL | 45300
AAAGRRGPGKRKGSRTSPGTAGGGGGRGGRGGGGRGGGARGGGAGGEAAGGAT | 29900

Sequence | transcriptional activation domain activity
SSSSTPSAFSSATPSSLFGSGASSTAKPFGSAASPSPFGAAKSSPSLFGSGGG | 69900
MFMGTLLLVFLHYDWAFFLDCCLWCFVISFCFCSVKFCLLVGCCILVLCNVAR | 70200
VSFFFFLSFFFPPFFFFSLSFLLSFFLSFLLPFPFFLSFFPFFPGCAAPSRSN | 32200
VGLVGMSLSILGKDHLVWNALAACRTEISEVFERMLRALYHWMIDVAHQYCGK | 56300
DESPDADATKREKKKKKQKKRKVLQKEEEEEAEAARDKRERKKRKKSKSDIRR | 39200
GKKRRRSSSSSSSSSGSSSSGSSSSSGSDSESDSSSDSSSSSSNSSRSSGSRS | 24900
VLFAVAVYMNHVPTAILWMSCVSAKLFSFCSQTFFVIRVYFLPWRFDLVFIPL | 37600
FLSYFSGWLTVIAWQCLVASASYVSGTLLQGLLVLNYPTYVFERWQGTLLMYA | 57900
TELYRFTLAQSEQPGMYPLDLAWLDWDLVSSLWSYSLWSIQLSIYFFCPFAYF | 61400
DSNILAILPAVVYLQHSCYCLYFFYLYCFCLFLMSIDVAILYCLLYKIIPLFH | 43400
IISGAGSNMERELFYCLQNVRFRGPLLRVILLVLKACWLLKNLWVYWLIVYHR | 45800
VMMAIIYLMVIFTFIIGVVAGVVPFLYFLSESHFLMCRKASETAGFLCLMFAA | 33700
SVVKFIEEYQAYFNTSYEVFLLLYISFILVTTLWCTSLIIYRILTVHLIEVLV | 29800
ASVVQWLGFHPSKVEVRVRFTAVANKRSSRTSLLLLVVWSWRRQRWMLRWSSG | 49300
MIIVFVFFSLFFFLPFLFPLAFFFLFLFPFFLPSYFPSYSLRCSYEGRPSFFF | 47100
VQKNYIMQYGNSLIGHQLKTLVQVNAFHVYDLVDSMQFLLTKVISELATLLWF | 59200
DLPVRLVELPNLLVTDIQQNAYLLDSALRVKLDAKGRAFLDSILLRVLQWLWT | 48200
NEEEEEASDHEAEEPKPKKKRGRLAKEVDEEPEAPAPKKARGRPRKAVVKEED | 24400
MLRVIVLLIVIDHLLYLPWLYFATYNARLLSCQSSTGRIYIERNCHSHSYGDK | 50700
RLSTFYNLNLIRVLFRFLFTLPLLILAHDFLLMLGALGCFVSSCITLLIFFPR | 63000
FSLAGSNYLGICWNPAVKNCIPYDTYLLWIRCMPFWYLFVFLYDIIPPILIVY | 59800
MPLMIIFRFTIFYFYFVSIFFFLFLLLVGEFFFLLSFFFFLSFVFFLFTISYF | 37100
QARQAQEPAMSQKDLATKVNEKQSVINDYESGRAVPNQQLLAKLERALGVKLR | 51300
KTDKSKDRKTKKKKSHKATGSERPSSSRGEEPEKDEEPEKKEKRRKKRKEEKR | 17900
